According to the DeepSol protein solubility set:

test: soluble on expression in E. coli; label from the status in PepcDB or PDB records

Soluble on expression in E. coli, not soluble:
GPGSMPSLANGLRCPDALITRTLNPLLNGPKFAVIYCGNHQYKVAVGDVIAVQRLRVEIGSHIALKKVLMVGGPRFTAIGRPLLEGVRVTAQVEEQKRMRNVVSLFATPGRRHVRWVDAPHAATVIRICEIFYSPNVVGELDKYKGELLETFTPGQHTNPVYPVDDGYDVFRKKDKEAMENATTFLDLLGGV, MGSDKIHHHHHHMKKWLVLGVAAVAFFSYENTPMEQAEADYPKSGGTLIDRYTSEYPGYDWEVRRTATEEFVALTKDGKDYGKYRSKNGVTTQGAVLNKDTETTLAKKGWKAVKSYRKGNTNYLLNLDHAAVYEKKDRYVTYFFDQHDGNKVKATLAIPKEVEAKKSGFYGKASSALRTTDEKLMLRLMNWDRADYNLGALTPYSPLKPVTRAHSENMAKNNFFSHTDPERRDPFDRMKENGIRFSAAGENLSMGYPNVFAAHWGLMNSKGHRDNIMNKTFEQADTGVAFRDNAPYFTINFRTP, MSLTRKEKPAKVGGFFVLSYVLGGRLAPASPVASDSNIRLPGGYINNSQKTTIDAVRAALSAARMGTFDTAAGVQSDDDPAALLLYAWNAEVSGAFLAPLHVCEVVIRNAVSDALEALYGPRWPWSATFERSLPDPKQGYSPRRDLQSARRSAQTTGKVIPELKFVFWQKMFTGRYDTRIWDQNLRRVMPNIDPAKPVAALRNAIYGDLERVRLLRNRIAHHEPMFARALADDYQTILVLVTYRCAVTAAWLDSHQTATAIITAKPEGHHHHHH, MASGKATSLYSHAEIFLPSKQESGIKKKSGEETQQTKGATIESSRINQNRAERTQRFQTQCSKRKPYEIRQGIPERSSSKQDPGNKTASIEHRGRENPSETHES, MAHHHHHHMRNGPKVLIALGNELKRGAASHQCKGDVARMYVNYLRQRYSMDEWNHVSNVNSFICEKNNIILIKPVTSLEKNSGLAIKNILNYLNCEDLKNVCIILPDLYRSIGKFKYKSYTKIYEKLGPDFYNILNSNIINNVLCNHFLQLCIGVSNYPNETKNAVAIALQECLSDGELKKIFKTFQLAEEYFHKKIMNGKVITTNYIHFKEKYPAMEPQKSFRRSTASRRYILDVYRHMYK, MREGWRDEPAARGGCQCGRVRYSVPAGPKKSTVCHCRMCQRATGNAFAPLLEVPTADVVWEGTPAVWASSSVAERGFCATCGTPLFYRSDETTELMAGTLAGFDFRPIANHGIEGRVGWLGGLAALPDRATRPELLSRVVSHQAPDE, LQIFSKEGLLIQEYGEKKRIPVTYDEIPPTLIHALIATEDQRFFEHPGVDVMGLGRAAVSMLKTGTKSQGGSTITMQVARNFFLSRKKTFLRKFNEIMLAIKIDRELSKEKILELYLNRVYLGNRAYGVGAAAMVYFGKSLKDLNLAELAMIAGLPQAPSTQNPIANP, MSTTGSAPPNSKLKSVEDTDDDRTLAEDDQNDQNSGSMDHRFERIKVTLMMTQGKKFGLGIVSVHQRILVCKVENESLVAGVLKYGDQIIEINKKNVLNKIDCKKRLMQCLKDKGQVDIIIVRPKTADAVTMIEQEIQLSQQPSTTAQPKIN, MGSDKIHHHHHHMRVRSVTEEDYLKIIQELVLYQDYAQLSDIAKSLQVKRQSARDEINHLIDLGMVKKIDRGKYVLTDQGDIEANIFLRKHRTAEVLLSQCVGIEWDAVDREAMGIEHGMTEEIIHRVIERFNAKRCPHGNPIPSPEGYVEKIDDVRITDLNETGDVIISRIIYETDEILNYLYANQILPGAKVKIIRTGFPLQIEKDGRLLSLDPSIAKAIRVSSIK, MVMKREVVGYTTMSEHLIDTQLTRSPFFFASANQSMLGCGVAHAFQQAIPFAELANQAKQLLQQAKRDECDNPLLFGIVPFDPKTPTRFMIPRTLYVSSSPRLNRPAHLTRQVAKLISSPSGEQYKQGVSHLLNMFHHSGLSKVVLSRAIEIATEQEIALPTLLRSLLAINHHGYTFAASLDEQRKLIGASPELLVAKRGNYLISNPLAGSRPRSQDAQENAQRRASLLNTAKDLHEHGLVVEEVERIMSRYCRNLYTPMVPSVIETETMLHLSTLLEGQVSDPEVCALQVAADLHPTPAVCGFPRESAYQAIRELEEFDRGYFTGMVGWCDARGNGEWVVTIRCAEVGSHQMKLFAGAGIVDESLPQSELEETGAKMKTILAAAGIELNDVLTA, MGSDKIHHHHHHMQLIFFRGMKELLSTMDLDTDANTIPELKERAHMLCARFLGGAWKTVPLEHLRISRIKGGMSNMLFLCRLSEVYPPIRNEPNKVLLRVYFNPETESHLVAESVIFTLLSERHLGPKLYGIFSGGRLEEYIPSRPLSCHEISLAHMSTKIAKRVAKVHQLEVPIWKEPDYLCEALQRWLKQLTGTVDAEHRFDLPEECGVSSVNCLDLARELEFLRAHISLSKSPVTFCHNDLQEGNILLPKASSGNIRMPSLSDETQALGNSLSAFNPADPRLVLIDFEYASYNYRAFDFANHFIEWTIDYDIDEAPFYKIQTENFPENDQMLEFFLNYLREQGNTRENELYKKSEDLVQETLPFVPVSHFFWGLRERSSVAVLQT, MGSDKIHHHHHHMRDQADRLREMALNLKQEIEAEIRRDLRYSRVVVISSGKGGVGKSTLALNLSLNLCARGMKIILMDADMGLANLDVMLGLVTKFNIYHIVQQKKSMEEITISGPEGLKIIPGGSGISELANLENTELKRILVELRKLDGAYDYMIIDTGAGISKSVMNFLLAAEDIIVITTPEPTAITDAYSLVKNVAKNSFAGSIYLVVNKVANDSEGILVAEKFKLVCQKFLSCEIKPLGHIVNEPLIGEGIRRQKAFVQIYPRSTATRNINTIVDRLIEASGQKSPGLESKRGGIRYFIEKIAGLVK, MAEMSEKTPELGDALRVGARVLVRRPSETAATGAAVEDCADLVPAQDRGHEWAPVPRWAVALDDGRLVFADTEDLTVNPSPGAPEGEIGKAVEPK

Soluble on expression in E. coli, soluble:
MQLGISKEQAGTVIGGLAGVAIGSTMGSGNGKIAAALIAGGIGAYVGNRIGHMLDEKDQQALALRTQEVLSQQQTTASAQPVTWKSDHSGATAQIVPGKEYTKTKQVEVKRAPKIQAVPSMKLINEPYVTISDNLNVRAAPNQAGEKVGSLKNHTEFTAVGSTGDWILVGRKGVTVGYVHKNYVEPKAQAVAKRVTPAVNLDELDVAASKETQGFDLDSVQSLPTQTVAAEAACRPVTVSLKSLEHHHHHH, AHHHHHHGSNKRFPFPVGEPDFIQGDEAIARAAILAGCRFYAGYPITPASEIFEAMALYMPLVDGVVIQMEDEIASIAAAIGASWAGAKAMTATSGPGFSLMQENIGYAVMTETPVVIVDVQRSGPSTGQPTLPAQGDIMQAIWGTHGDHSLIVLSPSTVQEAFDFTIRAFNLSEKYRTPVILLTDAEVGHMRERVYIPNPDEIEIINRKLPRNEEEAKLPFGDPHGDGVPPMPIFGKGYRTYVTGLTHDEKGRPRTVDREVHERLIKRIVEKIEKNKKDIFTYETYELEDAEIGVVATGIVARSALRAVKMLREEGIKAGLLKIETIWPFDFELIERIAERVDKLYVPEMNLGQLYHLIKEGANGKAEVKLISKIGGEVHTPMEIFEFIRREFK, MSLVENLSLEPQPKRRKIDPEVKESPSRNCSHWFVRNKVCASCNTIVDNYQGRSFDYLYTGIQMSNEALGFTKRLISQTSWLEDKKLHLVLDLDHTLVHTIKVSQLSESEKYITEEVESRKDLRRFNTGFPEESLIKLRSFVHQFLKECNEMFSLYVYTKGGYDYAQLVLEMIDPDKIYFGNRVITRRESPGFKTLDLVLADERGIVVVDDKSSVWPHDKKNLLQIARYKYFGDQSCLLSECKKKIDESDEKGPLNTALRFLMDVHEEFFCDWSRKDLDSVDVRPLLKEISLRWKRKADGVV, MTEYIQDAIPAKLAIAIANPIFPQLDSQLRAGRHISIEMLDEHAFLMDFQTELESFYRRYHVDLIRAPEGFFYLRPKASTLIARSAMSEMEMLVGKVLCYLYLSPERLAQQGIFSQDDVYEELLNLADENKLLKAVNPRSTGSDLDRAKLAEKVGGALRRLARIGIITRVGEQNSKKFIISEAVFRFGADVRAGDDPREVQLRLIRDGEATTPTLLTTEAIEFAEDGARDELEESEAELEHHHHHH, MKRPHGYQITSLRADKYGGYYAANFVGNEILYFDVNNNVNALVKDGFSYLKSPYDVIEANNLLYVTLYSSDEIGVYDKVLGVKRKSIGNKGTKDGELLAPQYMAIDKRNYIYVSEWGNKRVSKFGLEGDFILHFGSRTSGYKGLLGPTGVTYLNENIYVADSLRNTIEVFDTSGNHLYSVFTSIEGIEGLSSDFVGNNVIVSSKDGVYKYSIAKKTITKILKADKMNSKISSSILDANNQMIVSDFNNAKVSVYKSDASLYDSLEHHHHHH, MSLYKLIALDMDGTLLNSQKQISPRTKQAIAQARQQGIQVVLASGRPLDGMRSKLEELHLTTENDYVLYYNGSMVANVGTGEIIHQQIIDGKAAKRVATLAQEFGLNTHAFSQIHGLITPKTSQYTEVEASINGLNITEMDFAQLADDHPIIKAMIVGEPEKLTQAIAQLPAQWREEFTVVQSAPFFLEFLNTGSNKGIGVQAIAAHLGIQASEVICMGDAENDHHMLQYAGLGIAMANAMEETKHIADHITLSNDHDGVAVAIERFALGCFSEGHHHHHH, GHMPPWTARQDSTTGLYAPVTPAGRVLLDRLAAHLPRIRSTAAEHDRDGTFPTDTFDALRKDGLMGATVPAELGGLGVDRLYDVAVALLAVARADASTALALHMQLSRGLTLGYEWRHGDERARTLAERILRGMVAGDAVVCSGIKDHHTAVTTLRPDGAGGWLLSGRKTLVSMAPVGTHFVINARTDGTDGPPRLASPVVTRDTPGFTVLDNWDGLGMRASGTVDIVFDDCPIPADHVLMRDPVGARNDAVLAGQTVSSVSVLGVYVGVAQAAYDTAVAALERRPEPPQAAALTLVAEIDSRLYALRATAGSALTAADALSADLSGDMDERGRQMMRHFQCAKLAVNRLAPEIVSDCLSLVGGASYTAGHPLARLLRDVQAGRFMQPYAYVDAVDFLSAQALGIERDNNYMSTWAKRSGGNGKSADAAGPRRPTPTSR, MQNAIKTDASNSTVEARDEEPVAANDNKPASNPGTSVTEDSVAYIFASTYRDTLRFCHSTGAWFEWDGSYWRRNEVGLAAHHVRVMARDMSQGLSPKALATIRKRSFASGVEGFARNDPTFAVTIEAWDRDPFLLGTPDGTVDLRTGKMRAADPADGITKLTSTAPSAQADCPLWLRFLQDATGGDGEMIRFLQQWCGYCLTGDTREHALVFVHGDGGNGKSVFLNTTSYILHDYATTASMDTFVASRSDRHPTDLAMLRGARLVSASETEEGRAWAESRIKQMTGGDAISARFMRQDFFTFQPQFKLFVVGNHQPALHSVDAAARRRFNIVPFTRKPTKPDRELEAKLRGEAPAILRWMVDGCRDWQRNGLVRPASIVEATETYFAEQDTFGQWLKDACRVEPDNRSISDFVADLFKSWTDYAEASGERPGSQKGFVQSLTKSGFKKGQRVRGGQLYIGLQLLRQAEKEPSVRDLEHHHHHH, MREEDRRGGVKLSLTRLFLHERTVEIILRILKAEENGEKIYPLQISTDIGSPYSYVSKVLGELEKCSLVESRPEGRMRVVSLTPYGKVVASMLRDLYTELEKDFNSRMKLDILKDVYSNANGDVRVYLPVMAELEMLAKSTNDGFVVEEAKKLISEVKRKIEGAK
